In test [1] the target is T1, recombinant biotinylated CD71 extracellular domain (Sino Biologics) with an N-terminal 6His tag (human, UniProt P02786 89-760, biotinylated (sites not given)).
T1 construct: extracellular domain; also called hCD71; huCD71
As to the kind of experiment: screening ELISA. Here is the method: (§1) To screen for FN3 domains that specifically bind CD71, streptavidin-coated Maxisorp plates (Nunc catalog 436110) were blocked for 1 hour in Starting Block T20 (Pierce) and then coated with biotinylated CD71 (using same antigen as in panning) or negative controls (an unrelated Fc-fused recombinant protein and human serum albumin) for 1 hour. Plates were rinsed with TBST and diluted lysate was applied to plates for 1 hour. Following additional rinses, wells were treated with HRP-conjugated anti-V5 tag antibody (Abcam, ab1325), for 1 hour and then assayed with POD (Roche, 11582950001).

Test [2] concerns the target T1, recombinant biotinylated CD71 …. As to the kind of experiment: screening ELISA, ratio. On the procedure:
as §1

Test [3] addresses T2, CD71 on SK-BR-3 cells (human, UniProt P02786 1-760). As to the kind of experiment: cell-based or functional assay.
Test [4] concerns the target T2, CD71 on SK-BR-3 cells. As to the kind of experiment: cell-based or functional assay. The source holds these as a separate data set.

T2 sequence (P02786 whole entry): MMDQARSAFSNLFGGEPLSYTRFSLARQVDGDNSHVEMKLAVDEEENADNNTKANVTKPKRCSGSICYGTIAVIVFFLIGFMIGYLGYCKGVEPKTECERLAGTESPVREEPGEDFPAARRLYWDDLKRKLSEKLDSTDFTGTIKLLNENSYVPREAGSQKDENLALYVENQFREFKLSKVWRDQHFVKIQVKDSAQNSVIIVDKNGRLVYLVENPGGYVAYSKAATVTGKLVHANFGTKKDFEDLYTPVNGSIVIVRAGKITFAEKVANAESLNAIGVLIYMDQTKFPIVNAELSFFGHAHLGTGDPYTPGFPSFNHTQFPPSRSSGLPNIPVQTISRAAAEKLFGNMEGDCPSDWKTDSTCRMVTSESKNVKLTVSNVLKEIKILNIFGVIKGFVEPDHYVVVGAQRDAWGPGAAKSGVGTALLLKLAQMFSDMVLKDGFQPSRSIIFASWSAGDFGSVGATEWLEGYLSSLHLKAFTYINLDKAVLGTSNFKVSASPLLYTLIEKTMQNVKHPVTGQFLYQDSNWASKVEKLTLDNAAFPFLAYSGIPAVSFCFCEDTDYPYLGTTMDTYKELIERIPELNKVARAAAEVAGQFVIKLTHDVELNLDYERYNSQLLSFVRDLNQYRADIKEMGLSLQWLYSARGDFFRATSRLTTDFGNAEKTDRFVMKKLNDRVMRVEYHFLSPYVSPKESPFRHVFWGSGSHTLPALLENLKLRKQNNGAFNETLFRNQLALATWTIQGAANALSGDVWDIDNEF
T1 sequence (P02786 other isoform, or with tags, fused parts or gaps): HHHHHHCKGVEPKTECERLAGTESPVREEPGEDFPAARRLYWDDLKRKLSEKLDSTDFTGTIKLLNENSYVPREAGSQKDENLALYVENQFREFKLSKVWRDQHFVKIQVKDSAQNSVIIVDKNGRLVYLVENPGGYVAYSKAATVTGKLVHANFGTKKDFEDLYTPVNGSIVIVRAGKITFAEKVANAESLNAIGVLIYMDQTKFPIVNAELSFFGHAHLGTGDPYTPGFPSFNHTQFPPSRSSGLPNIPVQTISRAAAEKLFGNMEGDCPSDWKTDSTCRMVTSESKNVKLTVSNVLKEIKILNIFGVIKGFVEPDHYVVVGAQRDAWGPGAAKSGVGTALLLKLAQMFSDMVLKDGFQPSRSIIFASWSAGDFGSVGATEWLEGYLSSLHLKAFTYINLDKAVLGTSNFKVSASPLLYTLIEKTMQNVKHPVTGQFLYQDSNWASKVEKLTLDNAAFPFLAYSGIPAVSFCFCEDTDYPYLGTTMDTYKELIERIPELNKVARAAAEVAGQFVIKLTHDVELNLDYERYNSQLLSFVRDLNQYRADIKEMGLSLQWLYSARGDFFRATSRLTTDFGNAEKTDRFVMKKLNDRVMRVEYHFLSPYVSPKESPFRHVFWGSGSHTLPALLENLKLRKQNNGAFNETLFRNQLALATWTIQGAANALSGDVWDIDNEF

B1: SEQ ID NO 37 (designed binder)
chain: MLPAPKNLVVSRVTEDSARLSWTAPDAAFDSFHIIYTEEEKEGEAIYLRVPGSERSYDLTGLKPGTEYLVEIEGVKGGKRSVPLNASFTT
notes: FN3 domain
On to B1, for which the hCD71 in test [1] was 1.27e+06. In addition, in test [2], the huCD71/Fc stood at 467. Moreover, the “IC50, SKBR-3 cell viability, MMAF conjugate” value (shortened to “IC50, SKBR-3 cell viability”) with CD71 on SK-BR-3 cells [3] stood at 0.15 nM. Further, in the test with CD71 on SK-BR-3 cells [4], the “IC50, SK-BR3 viability, MMAF conjugate, no competitor” value (shortened to “IC50 … no competitor”) amounted to 0.7 nM and the “IC50, SK-BR3 viability, MMAF conjugate, with 0.6 uM holo-human transferrin” value (“IC50 … with 0.6 uM holo-human transferrin” below) stood at 143 nM.

B2: SEQ ID NO 38 (designed binder)
chain: MLPAPKNLVVSRVTEDSARLSWTAPDAAFDSFHIAYEESHTTGEAIFLRVPGSERSYDLTGLKPGTEYSVSIEGVKGGHYSPPLTAKFTT
notes: FN3 domain
Consider B2, for which the hCD71 in test [1] was 840000. In addition, in test [2], the huCD71/Fc is 202. In addition, the “IC50, SKBR-3 cell viability” value with CD71 on SK-BR-3 cells [3] was found to be 3.82 nM. In the test with CD71 on SK-BR-3 cells [4], the “IC50 … no competitor” value turned out to be 4 nM and the “IC50 … with 0.6 uM holo-human transferrin” value was ~120 nM.

B3: SEQ ID NO 35 (designed binder)
chain: MLPAPKNLVVSRVTEDSARLSWTAPDAAFDSFEIAYFEAIWNGEAIYLTVPGSERSYDLTGLKPGTEYQVEIRGVKGGPTSRPLFAWFTT
notes: FN3 domain
As for B3, in test [1], the hCD71 turned out to be 3.24e+06. Also, the huCD71/Fc in test [2] is 2130. Further, in the test with CD71 on SK-BR-3 cells [3], the “IC50, SKBR-3 cell viability” value was determined as 2.5 nM. Besides, in the test with CD71 on SK-BR-3 cells [4], the “IC50 … no competitor” value was 0.7 nM and the “IC50 … with 0.6 uM holo-human transferrin” value amounted to 41.5 nM.

B4: SEQ ID NO 34 (designed binder)
chain: MLPAPKNLVVSRVTEDSARLSWTAPDAAFDSFAITYIEWWDVGEAIGLKVPGSERSYDLTGLKPGTEYRVHIQGVKGGNNSYPLDALFTT
notes: FN3 domain
Turning to B4, the hCD71 in test [1] stood at 310000. Moreover, the huCD71/Fc in test [2] was determined as 12. Besides, the “IC50, SKBR-3 cell viability” value in the test with CD71 on SK-BR-3 cells [3] is 0.37 nM. Further, in the test with CD71 on SK-BR-3 cells [4], the “IC50 … no competitor” value was found to be 1.3 nM and the “IC50 … with 0.6 uM holo-human transferrin” value was 196 nM.

B5: SEQ ID NO 54 (designed binder)
chain: MLPAPKNLVVSRVTEDSARLSWTAPDAAFDSFQILYQENAFEGEAIVLTVPGSERSYDLTGLKPGTEYWVYIYGVKGGYPSVPLSAIFTT
notes: FN3 domain
Turning to B5, the hCD71 in test [1] was 6.99e+06. Moreover, the huCD71/Fc in test [2] came out at 1130. Further, the “IC50, SKBR-3 cell viability” value in the test with CD71 on SK-BR-3 cells [3] is 0.4 nM. For the same molecule, in the test with CD71 on SK-BR-3 cells [4], the “IC50 … no competitor” value is 0.13 nM and the “IC50 … with 0.6 uM holo-human transferrin” value turned out to be 5 nM.

The values above are taken from patent US20210145976A1 (ARO BIOTHERAPEUTICS, published 2021).
